B1: PI4K2A (parent)
chain: FVKDPQGRIIAVFKPKNEEPYGHL
B2: ATL3 (parent)
chain: EKALASILLQDHIRDLDVVVVSVA
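Also: lentivirally expressed fusions sorted by FACS into six bins by GFP to DsRed ratio, PSI derived from sequencing read proportions per bin multiplied by bin number.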

Variants of B1 are the subject of the first data set. As to the kind of experiment: protein stability index of a GFP-peptide fusion (GPS, HEK-293T) (PSI 1-6); higher = more stable. Conditions: c terminus: a fixed tail appended.
In the case of FVKDPQGRIIAVFKPKNEEPYGHA, the protein stability index was found to be 2.27.

Consider FVKDPQGRIIAVFKPKNEEPYGHE, for which the protein stability index came to 1.04.

For FVKDPQGRIIAVFKPKNEEPYGHG, the protein stability index came out at 1.48.

As to FVKDPQGRIIAVFKPKNEEPYGHR, the protein stability index came to 1.42.

As for FVKDPQGRIIAVFKPKNEEPYGHP, the protein stability index amounted to 2.33.

With FVKDPQGRIIAVFKPKNEEPYGHT, the protein stability index amounted to 2.22.

FVKDPQGRIIAVFKPKNEEPYGHV: the protein stability index is 2.19.

As to FVKDPQGRIIAVFKPKNEEPYGHQ, the protein stability index is 2.03.

FVKDPQGRIIAVFKPKNEEPYGHF: the protein stability index is 1.53.

For FVKDPQGRIIAVFKPKNEEPYGHS, the protein stability index worked out at 2.1.

Take FVKDPQGRIIAVFKPKNEEPYGHM: the protein stability index was determined as 1.92.

Regarding FVKDPQGRIIAVFKPKNEEPYGHY, the protein stability index came out at 1.41.

On to FVKDPQGRIIAVFKPKNEEPYGHW, for which the protein stability index came to 1.74.

Turning to FVKDPQGRIIAVFKPKNEEPYGHI, the protein stability index worked out at 1.92.

As to FVKDPQGRIIAVFKPKNEEPYGHN, the protein stability index was 1.63.

Take FVKDPQGRIIAVFKPKNEEPYGHD: the protein stability index amounted to 2.03.

Consider FVKDPQGRIIAVFKPKNEEPYGHC, for which the protein stability index came out at 2.24.

As for FVKDPQGRIIAVFKPKNEEPYGHK, the protein stability index came to 2.04.

On to FVKDPQGRIIAVFKPKNEEPYGHH, for which the protein stability index worked out at 1.76.

As to FVKDPQGRIIAVFKPKNEEPYGIL, the protein stability index was found to be 2.38.

In the case of FVKDPQGRIIAVFKPKNEEPYGQL, the protein stability index came to 1.56.

Regarding FVKDPQGRIIAVFKPKNEEPYGSL, the protein stability index was found to be 1.36.

On to FVKDPQGRIIAVFKPKNEEPYGNL, for which the protein stability index came to 1.99.

For the variant FVKDPQGRIIAVFKPKNEEPYGRL, the protein stability index was 1.79.

For the variant FVKDPQGRIIAVFKPKNEEPYGYL, the protein stability index was determined as 1.78.

On to FVKDPQGRIIAVFKPKNEEPYGVL, for which the protein stability index was 2.28.

In the case of FVKDPQGRIIAVFKPKNEEPYGML, the protein stability index is 1.87.

On to FVKDPQGRIIAVFKPKNEEPYGWL, for which the protein stability index worked out at 1.83.

With FVKDPQGRIIAVFKPKNEEPYGLL, the protein stability index was 2.41.

As to FVKDPQGRIIAVFKPKNEEPYGPL, the protein stability index is 2.47.

Consider FVKDPQGRIIAVFKPKNEEPYGKL, for which the protein stability index worked out at 1.61.

For the variant FVKDPQGRIIAVFKPKNEEPYGTL, the protein stability index stood at 1.81.

In the next data set the parent is B2. The description is as above. As to conditions: c terminus: a fixed tail appended.
For the variant EDALASILLQDHIRDLDVVVVSVA, the protein stability index worked out at 2.78.

Take ERALASILLQDHIRDLDVVVVSVA: the protein stability index turned out to be 1.3.

For EYALASILLQDHIRDLDVVVVSVA, the protein stability index is 2.98.

As to EKAEASILLQDHIRDLDVVVVSVA, the protein stability index stood at 1.39.

Take EKATASILLQDHIRDLDVVVVSVA: the protein stability index was found to be 1.37.

As to EKACASILLQDHIRDLDVVVVSVA, the protein stability index stood at 1.47.

For the variant EKADASILLQDHIRDLDVVVVSVA, the protein stability index amounted to 2.61.

Take EKAQASILLQDHIRDLDVVVVSVA: the protein stability index came to 1.69.

For EKAPASILLQDHIRDLDVVVVSVA, the protein stability index worked out at 1.25.

For the variant EKAAASILLQDHIRDLDVVVVSVA, the protein stability index worked out at 1.45.

As to EKAYASILLQDHIRDLDVVVVSVA, the protein stability index came out at 1.83.

In the case of EKAVASILLQDHIRDLDVVVVSVA, the protein stability index turned out to be 3.38.

For the variant EKAKASILLQDHIRDLDVVVVSVA, the protein stability index was found to be 3.04.

As to EKAHASILLQDHIRDLDVVVVSVA, the protein stability index was found to be 1.05.

Turning to EKALASILLQDHIRDLDVSVVSVA, the protein stability index was 2.01.

Consider EKALASILLQDHIRDLDVHVVSVA, for which the protein stability index is 2.29.

Regarding EKALASILLQDHIRDLDVDVVSVA, the protein stability index was found to be 3.81.

With EKALASILLQDHIRDLDVGVVSVA, the protein stability index is 2.25.

Regarding EKALASILLQDHIRDLDVRVVSVA, the protein stability index amounted to 2.19.

Turning to EKALASILLQDHIRDLDVNVVSVA, the protein stability index was determined as 1.72.

Consider EKALASILLQDHIRDLDVCVVSVA, for which the protein stability index is 4.35.

Regarding EKALASILLQDHIRDLDVKVVSVA, the protein stability index worked out at 1.96.

For the variant EKALASILLQDHIRDLDVQVVSVA, the protein stability index was determined as 1.42.

Regarding EKALASILLQDHIRDLDVPVVSVA, the protein stability index is 2.52.

Consider EKALASILLQDHIRDLDVAVVSVA, for which the protein stability index stood at 1.64.

For the variant EKALASILLQDIIRDLDVVVVSVA, the protein stability index is 3.19.

In the case of EKALASILLQDPIRDLDVVVVSVA, the protein stability index came to 2.97.

In the case of EKALASILLQDEIRDLDVVVVSVA, the protein stability index was 2.17.

For EKALASILLQDTIRDLDVVVVSVA, the protein stability index was 2.26.

With EKALASILLQDGIRDLDVVVVSVA, the protein stability index stood at 4.08.

As to EKALASILLQDLIRDLDVVVVSVA, the protein stability index came to 2.48.

Turning to EKALASILLQDHIRDLDVVYVSVA, the protein stability index came to 2.34.

For EKALASILLQDHIRDLDVVAVSVA, the protein stability index is 1.58.

For EKALASILLQDHIRDLDVVMVSVA, the protein stability index turned out to be 1.82.

Take EKALASILLQDHIRDLDVVTVSVA: the protein stability index was found to be 1.89.

EKALASILLQDHIRDLDVVRVSVA: the protein stability index came to 2.2.

Regarding EKALASILLQDHIRDLDVVHVSVA, the protein stability index was 2.18.

EKALASILLQDHIRDLDVVNVSVA: the protein stability index stood at 3.1.

As for EKALASILLQDHIRDLDVVEVSVA, the protein stability index was 2.89.

Consider EKALASILLQDHIRDLDVVDVSVA, for which the protein stability index was determined as 2.79.

On to EKALASILLQDHIRDLDVVPVSVA, for which the protein stability index came to 3.2.

Take EKALASILLQDHIRDLDVVQVSVA: the protein stability index came to 2.1.

Regarding EKALASILLQDHIRDLDVVLVSVA, the protein stability index is 3.35.

For EKALASILLQDHIRDLDVVWVSVA, the protein stability index is 3.67.

EKALASILLQDHIRDLDVVKVSVA: the protein stability index was 2.79.

For the variant EKALASILLQDHIRDLDVVVVHVA, the protein stability index is 1.84.

Take EKALASILLQDHIRDLDVVVVDVA: the protein stability index worked out at 2.35.

Take EKALASILLQDHIRDLDVVVVLVA: the protein stability index was determined as 2.02.

With EKALASILLQDHIRDLDVVVVEVA, the protein stability index stood at 2.86.

EKALASILLQDHIRDLDVVVVGVA: the protein stability index came to 1.07.

With EKALASILLQDHIRDLDVVVVPVA, the protein stability index is 1.91.

For the variant EKALASELLQDHIRDLDVVVVSVA, the protein stability index worked out at 2.37.

For the variant EKALASTLLQDHIRDLDVVVVSVA, the protein stability index was 2.13.

As to EKALASRLLQDHIRDLDVVVVSVA, the protein stability index came to 2.08.

As for EKALASLLLQDHIRDLDVVVVSVA, the protein stability index turned out to be 1.97.

On to EKALASKLLQDHIRDLDVVVVSVA, for which the protein stability index was determined as 2.32.

In the case of EKALASDLLQDHIRDLDVVVVSVA, the protein stability index came to 2.51.

Consider EKALASYLLQDHIRDLDVVVVSVA, for which the protein stability index stood at 2.15.

In the case of EKALASHLLQDHIRDLDVVVVSVA, the protein stability index was determined as 2.31.

With EKALASNLLQDHIRDLDVVVVSVA, the protein stability index is 1.31.

Consider EKALASALLQDHIRDLDVVVVSVA, for which the protein stability index turned out to be 2.62.

Regarding EKALASSLLQDHIRDLDVVVVSVA, the protein stability index came to 2.85.
